Changes are numbered by the printed parent chain.
T1: H6-tagged OsTPR2 N-terminal domain (TPD), TPR2(1–210) (rice, UniProt Q5NBT9 1-210)
T1 sequence (looked up): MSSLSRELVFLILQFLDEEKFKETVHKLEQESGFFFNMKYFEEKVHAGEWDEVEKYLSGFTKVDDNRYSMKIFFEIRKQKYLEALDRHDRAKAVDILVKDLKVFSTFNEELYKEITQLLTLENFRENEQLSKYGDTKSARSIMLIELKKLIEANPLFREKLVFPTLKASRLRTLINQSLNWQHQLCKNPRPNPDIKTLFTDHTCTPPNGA

T2: Gal4 DBD-NINJA full length (Arabidopsis, UniProt Q9SV55 1-425)
T2 sequence (looked up): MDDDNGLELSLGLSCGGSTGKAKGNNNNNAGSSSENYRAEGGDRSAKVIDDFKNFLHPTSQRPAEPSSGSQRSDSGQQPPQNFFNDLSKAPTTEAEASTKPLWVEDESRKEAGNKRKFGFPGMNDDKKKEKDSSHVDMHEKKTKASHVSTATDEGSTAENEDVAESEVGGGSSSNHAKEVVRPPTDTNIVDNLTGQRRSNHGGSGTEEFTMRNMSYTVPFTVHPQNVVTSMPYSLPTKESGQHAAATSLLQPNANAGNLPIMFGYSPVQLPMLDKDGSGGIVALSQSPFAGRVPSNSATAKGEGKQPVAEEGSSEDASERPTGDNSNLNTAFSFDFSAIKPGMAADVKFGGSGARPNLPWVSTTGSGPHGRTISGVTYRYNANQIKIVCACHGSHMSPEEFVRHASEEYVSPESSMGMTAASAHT

B1: OsTPR1 TOPLESS domain (TPD), TPR1(1–209), tag removed (domain or fragment, rice, UniProt Q10NY2 1-209, looked up)
chain: MSSLSRELVFLILQFLDEEKFKETVHKLEQESGFYFNMKYFEDEVINGNWDEVERYLGGFTKVDDNRYSMKIFFEIRKQKYLEALDKHDRSKAVEILVKDLKVFASFNEELFKEITQLLTLENFRENEQLSKYGDTKSARAIMLVELKKLIEANPLFRDKLQFPNLKSSRLRTLINQSLNWQHQLCKNPRPNPDIKTLFVDHSCGQPNG
B2: Arabidopsis TPR3 TOPLESS domain (TPD), TPR3(1–209), tag removed (domain or fragment, UniProt Q84JM4 1-209, looked up)
chain: MSSLSRELVFLILQFLEEEKFKESVHRLEKESGFFFNTKYFDEKVLAGEWDDVETYLSGFTKVDDNRYSMKIFFEIRKQKYLEALDRQEKAKAVEILVQDLRVFSTFNEELYKEITQLLTLQNFRENEQLSKYGDTKTARGIMLGELKKLIEANPLFRDKLMFPTLRSSRLRTLINQSLNWQHQLCKNPRPNPDIKTLFTDHTCTLPNG
B3: Arabidopsis TPR4 TOPLESS domain (TPD), TPR4(1–209), tag removed (domain or fragment, UniProt Q27GK7 1-209, looked up)
chain: MSSLSRELVFLILQFLDEEKFKDTVHRLEKESGFFFNMRYFEDSVTAGEWDDVEKYLSGFTKVDDNRYSMKIFFEIRKQKYLEALDKKDHAKAVDILVKELKVFSTFNEELFKEITMLLTLTNFRENEQLSKYGDTKSARGIMLGELKKLIEANPLFRDKLQFPSLKNSRLRTLINQSLNWQHQLCKNPRPNPDIKTLFVDHTCGHPNG
B4: OsTPR2 TOPLESS domain (TPD), TPR2(1–210), tag removed (domain or fragment, rice, UniProt Q5NBT9 1-210, looked up)
chain: T1 sequence (looked up)
B5: VP16-OsTPR2 full length (natural protein, rice, UniProt Q5NBT9 1-1129, looked up)
chain: MSSLSRELVFLILQFLDEEKFKETVHKLEQESGFFFNMKYFEEKVHAGEWDEVEKYLSGFTKVDDNRYSMKIFFEIRKQKYLEALDRHDRAKAVDILVKDLKVFSTFNEELYKEITQLLTLENFRENEQLSKYGDTKSARSIMLIELKKLIEANPLFREKLVFPTLKASRLRTLINQSLNWQHQLCKNPRPNPDIKTLFTDHTCTPPNGARASPVSVPLAAVPKAGGTYPPLTAHTPFQPPPAGPSLAGWMANAAAATSSVPSAVVAASSLPVPPNQAVPIMKRPTITDYQSAESEQLMKRLRPSGHGVDEATYPAPIPQPLWSVEDLPRTVACTLSQGSSVTSMDFHPTRHTLLLVGSTNGEITLWEVGMRERLFSKPFKIWDIQACSPQFQSVAKESSISINRVTWSPDGDLIGVAFAKHLIHLHAYQQPNETRQVLEIDAHSGAVNDIAFSRPNKQLCVVTCGDDRLIKVWDMHGQKLFSFEGHEAPVYSICPHHKESIQFIFSTSLDGKIKAWLYDHMGSRVDYDAPGKWCTTMLYSADGTRLFSCGTSKDGDSYLVEWNESEGSIKRTYSGFRKKSAGVGVVQFDTAQNHILAAGEDNQIKFWDVDNTTMLSSTEADGGLPGLPRLRFNKEGNLLAVTTVDNGFKILANADGLRTLRAFGNRPFEAFRSQYEASSMKVSGAPVVAGISPNIGRMDHIDRNSPAKPSPIMNGGDPASRSIDIKPRISEERPDKAKPWELMEVLNAQQCRVATMPETPDQASKVVRLLYTNSGVGLLALGSNAIQRLWKWARNDQNPSGKATANVVPQHWQPNSGLVMQNDTADTNPEDAVPCIALSKNDSYVMSACGGKVSLFNMMTFKVMTTFMPPPPASTFLAFHPQDNNIIAIGMEDSTIHIYNVRVDEVKTRLKGHQRRITGLAFSNNLQILVSSGADAQLCVWATDTWEKKKSVAIQMPAGKTPSGDTWVQFNSDWSRLLVVHETQLAIYDASKMERIYQWIPQDALSAPISHASYSRNSQLVFAAFTDGNIGIFDVENLRLRCRIAPPAYLSSAAINSNPSVYPLVVAAHPQESNQFAVGLSDGSVKVIEPLESEGKWGTTPPTENGVPNGRTSTSSATSNPAADQIQR
B6: Arabidopsis TPR2 TOPLESS domain (TPD), TPR2(1–209), tag removed (domain or fragment, UniProt Q9LRZ0 1-209, looked up)
chain: MSSLSRELVFLILQFLDEEKFKESVHKLEQESGFFFNIKYFEEKALAGEWDEVEKYLSGFTKVDDNRYSMKIFFEIRKQKYLEALDRNDRAKAVEILAKDLKVFATFNEELYKEITQLLTLENFRENEQLSKYGDTKSARSIMYTELKKLIEANPLFREKLAFPSFKASRLRTLINQSLNWQHQLCKNPRPNPDIKTLFLDHSCSPSNG
B7: OsTPL TOPLESS domain (TPD), TPL(1–209), tag removed (domain or fragment, rice, UniProt Q0J7U6 1-209, looked up)
chain: MSSLSRELVFLILQFLDEEKFKETVHKLEQESAFYFNMKHFEDLVQGGEWDEVEKYLSGFTKVEDNRYSMKIFFEIRKQKYLEALDRHDRAKAVEILVKDLKVFASFNEELFKEITQLLTLENFRQNEQLSKYGDTKSARNIMLMELKKLIEANPLFRDKLNFPPFKVSRLRTLINQSLNWQHQLCKNPRPNPDIKTLFTDHSCAAPTN
B8: Arabidopsis TPL TOPLESS domain (TPD), TPL(1–209), tag removed (domain or fragment, UniProt Q94AI7 1-209, looked up)
chain: MSSLSRELVFLILQFLDEEKFKETVHKLEQESGFFFNMKYFEDEVHNGNWDEVEKYLSGFTKVDDNRYSMKIFFEIRKQKYLEALDKHDRPKAVDILVKDLKVFSTFNEELFKEITQLLTLENFRENEQLSKYGDTKSARAIMLVELKKLIEANPLFRDKLQFPTLRNSRLRTLINQSLNWQHQLCKNPRPNPDIKTLFVDHSCGPPNG
B9: Arabidopsis TPR1 TOPLESS domain (TPD), TPR1(1–209), tag removed (domain or fragment, UniProt Q0WV90 1-209, looked up)
chain: B8 chain with K87R, N168T, G205R, P206L, G209D

Key:
[1] = target: H6-tagged OsTPR2 N-terminal domain (TPD), TPR2(1–210) (rice) (UniProt Q5NBT9); assay: AlphaScreen or HTRF
[2] = target: TraM-NINJA EAR fusion protein (tetrameric), untagged (not stated | Arabidopsis); assay: SEC
[3] = target: T1, H6-tagged OsTPR2 N-terminal domain …; assay: AlphaScreen or HTRF
SEC = target: the molecule itself; assay: SEC
crystal structure = target: the molecule itself; assay: crystal structure
[4] = target: T2, Gal4 DBD-NINJA full length; assay: two-hybrid

| Molecule | stoichiometry N (SEC) | further results |
| --- | --- | --- |
| TraM-NINJA EAR fusion protein (tetrameric), untagged |  | IC50 [1]: 0.16 µM; stoichiometry N [2]: 4 |
| DNGLELSLGLSC [monomeric NINJA EAR motif peptide (12 amino acids, untagged)] |  | IC50 [3]: 38 µM |
| B1 | 4 |  |
| B2 | 4 |  |
| B3 | 4 |  |
| B4 |  | stoichiometry N (crystal structure): 4 |
| B5 |  | luciferase reporter activation above background [4]: ~2 fold |
| B6 | 4 |  |
| B7 | 4 |  |
| B8 | 4 |  |
| B9 | 4 |  |

From PMC4646777 (Science Advances, 2015)
